US20220041674A1 (published 2022)
Non-standard residues stand in square brackets, D forms with d. Nal = naphthylalanine

Key:
[1] = target: human chemokine receptor 4 (CXCR4) (human) (UniProt P61073); test: competitive radioligand binding on Jurkat cells (400.000 cells/sample), [125I]FC-131
[2] = target: human chemokine receptor 4 (CXCR4) (human) (UniProt P61073); test: competitive radioligand binding on Jurkat cells, [125I]FC131 0.1 nM, 2 h RT
[3] = target: human chemokine receptor 4 (CXCR4) (human) (UniProt P61073); test: cell-based or functional assay
[4] = target: T1, murine chemokine receptor 4 (CXCR4) (murine, UniProt P70658 1-359); test: competitive radioligand binding on Eµ-Myc1080 mouse B-cell lymphoma cells, [125I]CPCR4.3
T1 construct: whole, on cells; receptor present on whole cells; also called mCXCR4; mouse CXCR4
T1 sequence (P70658 whole entry): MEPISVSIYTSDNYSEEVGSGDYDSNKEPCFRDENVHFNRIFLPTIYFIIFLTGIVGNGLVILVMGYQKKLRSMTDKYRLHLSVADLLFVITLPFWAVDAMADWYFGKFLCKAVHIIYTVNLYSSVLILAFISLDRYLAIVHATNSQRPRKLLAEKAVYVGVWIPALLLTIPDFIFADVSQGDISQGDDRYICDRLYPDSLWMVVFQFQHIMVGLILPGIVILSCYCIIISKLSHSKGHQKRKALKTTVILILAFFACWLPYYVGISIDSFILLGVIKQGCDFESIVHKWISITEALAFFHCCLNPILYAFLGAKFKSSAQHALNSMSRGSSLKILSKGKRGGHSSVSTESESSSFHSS

Chain of human chemokine receptor 4 (CXCR4) (human) (P61073 whole entry): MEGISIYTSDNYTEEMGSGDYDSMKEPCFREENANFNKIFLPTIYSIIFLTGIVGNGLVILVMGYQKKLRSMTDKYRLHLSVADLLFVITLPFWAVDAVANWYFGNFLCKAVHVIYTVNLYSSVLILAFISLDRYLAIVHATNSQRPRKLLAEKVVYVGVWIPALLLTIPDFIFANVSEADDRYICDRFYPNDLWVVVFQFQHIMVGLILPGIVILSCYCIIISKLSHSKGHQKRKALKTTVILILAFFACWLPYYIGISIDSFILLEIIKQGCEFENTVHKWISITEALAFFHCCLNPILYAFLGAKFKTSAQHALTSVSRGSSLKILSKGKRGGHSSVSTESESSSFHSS

cyclo[i-yorn′([natLu]DOTA-kG-(4-amino)benzoyl-)RNaIG ([natLu]P3) (peptide)
IC50 [1]: 3.6 nM
IC50 [2]: 3.6 nM

cyclo[i-yorn′(AMBF3(methyl(1H-1,2,3-triazol-4-yl)-vG-4-amino)benzoyl-)RNaIG] (F2) (peptide)
IC50 [1]: 65.2 nM

cyclo[yorn′([natLu]DOTA-rG-(4-amino)benzoyl-)RNaIG ([natLu]P4b) (peptide)
IC50 [1]: 5.4 nM
IC50 [2]: 5.4 nM

cyclo[i-yorn′([natY]DOTA-kG-(4-amino)benzoyl-)RNaIG ([natY]P3) (peptide)
IC50 [1]: 2.4 nM

cyclo[yorn′([natLu]DOTA-kG-(4-amino)benzoyl-)RNaIG ([natLu]P3b) (peptide)
IC50 [1]: 8 nM
IC50 [2]: 8 nM

cyclo[i-yorn′([natY]DOTA-dapG-(4-amino)benzoyl-)RNaIG ([natY]P2) (peptide)
IC50 [1]: 4.1 nM

cyclo[-yorn′(AMBF3(methyl(1H-1,2,3-triazol-4-yl)-rG-4-amino)benzoyl-)RNaIG] (F3b) (peptide)
IC50 [1]: 2.4 nM

cyclo[yorn′([natLu]DOTA-ra-(4-amino)benzoyl-)RNaIG ([natLu]P5b) (peptide)
specific internalized activity (hCXCR4+ Chem 1 cells, 37 °C, 1.0 nM peptide, 60 min) [3]: 21.2%

^natGa-pentixafor, natGa complex of cyclo(D-Tyr1-D-[NMe]Orn2(AMBS-DOTA)-Arg3-Nal4-Gly5) (peptide)
IC50 [2]: 24.8 nM

cyclo[yorn′([natY]DOTA-ra-(4-amino)benzoyl-)RNaIG ([natY]P5b) (peptide)
IC50 [1]: 0.3 nM

cyclo[i-yorn′([natGa]DOTA-kG-(4-amino)benzoyl-)RNaIG ([natGa]P3) (peptide)
IC50 [1]: 2.4 nM
IC50 [2]: 2.4 nM

cyclo[i-yorn′([natLu]DOTA-ra-(4-amino)benzoyl-)RNaIG ([natLu]P5) (peptide)
specific internalized activity (hCXCR4+ Chem 1 cells, 37 °C, 1.0 nM peptide, 60 min) [3]: 36.7%

cyclo[i-yorn′(AMBF3(methyl(1H-1,2,3-triazol-4-yl)4-amino)benzoyl-)RNaIG] (F1) (peptide)
IC50 [1]: 134 nM

cyclo[yorn′([natGa]DOTA-kG-(4-amino)benzoyl-)RNaIG ([natGa]P3b) (peptide)
IC50 [1]: 8.9 nM
IC50 [2]: 8.9 nM

cyclo[i-yorn′(AMBF3(methyl(1H-1,2,3-triazol-4-yl)-kG-4-amino)benzoyl-)RNaIG] (F4) (peptide)
IC50 [1]: 3.8 nM

cyclo[yorn′([natGa]DOTA-rG-(4-amino)benzoyl-)RNaIG ([natGa]P4b) (peptide)
IC50 [1]: 9.7 nM
IC50 [2]: 9.7 nM

cyclo[yorn′([natY]DOTA-rG-(4-amino)benzoyl-)RNaIG ([natY]P4b) (peptide)
IC50 [1]: 8.7 nM

cyclo[yorn′([natGa]DOTA-ra-(4-amino)benzoyl-)RNaIG ([natGa]P5b) (peptide)
IC50 [1]: 0.4 nM
IC50 [2]: 0.4 nM

cyclo[i-yorn′([natBi]DOTA-kG-(4-amino)benzoyl-)RNaIG ([natBi]P3) (peptide)
IC50 [1]: 38 nM

cyclo[i-yorn′([natGa]DOTA-dapG-(4-amino)benzoyl-)RNaIG ([natGa]P2) (peptide)
IC50 [1]: 3.6 nM
IC50 [2]: 3.6 nM

cyclo[i-yorn′([natLu]DOTA-d-(4-amino)benzoyl-)RNaIG ([natLu]P1) (peptide)
IC50 [1]: 106 nM
IC50 [2]: 106 nM

^natLu-pentixafor, natLu complex of cyclo(D-Tyr1-D-[NMe]Orn2(AMBS-DOTA)-Arg3-Nal4-Gly5) (peptide)
IC50 [2]: 41 nM

^natLu-pentixather, natLu complex of cyclo(D-3-iodo-Tyr1-D-[NMe]Orn2(AMBS-DOTA)-Arg3-Nal4-Gly5) (peptide)
specific internalized activity (hCXCR4+ Chem 1 cells, 37 °C, 1.0 nM peptide, 60 min) [3]: 3.8%

cyclo[yorn′([natY]DOTA-kG-(4-amino)benzoyl-)RNaIG ([natY]P3b) (peptide)
IC50 [1]: 6.3 nM

B1: FC131, c[yRRNaIG] (R2) (peptide)
peptide: cyclo([dY]RR[Nal]G)
notes: stands under the natLu column heads although it carries no chelator; also called cyclo(Gly-Nal-Arg-Arg-D-Tyr)
IC50 [4]: 119 nM
